Results from patent US20260209291A1 (KAMINO, published 2026).
Read-outs that look alike come from different tables or passages of the source. Blank lines part the entries; values can stand above or below the binder they belong to.

Legend:
[1] = target: T1, GDF11 (Growth Differentiation Factor 11) (Homo sapiens (Human), UniProt O95390 299-407); assay: cell-based or functional assay
T1 sequence: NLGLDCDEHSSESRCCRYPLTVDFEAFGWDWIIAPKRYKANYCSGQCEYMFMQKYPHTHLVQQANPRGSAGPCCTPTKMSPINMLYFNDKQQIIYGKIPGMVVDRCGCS

myostatin [2] = target: T2, myostatin (Homo sapiens (Human), UniProt O14793 267-375); assay: cell-based or functional assay
T2 sequence: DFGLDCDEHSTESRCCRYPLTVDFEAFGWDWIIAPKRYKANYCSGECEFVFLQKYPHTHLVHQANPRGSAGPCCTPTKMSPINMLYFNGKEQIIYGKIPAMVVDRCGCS

[3] = target: VEGF (Vascular Endothelial Growth Factor) (UniProt P15692-4 27-191); assay: SPR (Biacore 3000, 25 °C): compound captured to about 1,000 RU on a CM5 chip with the mouse antibody capture kit, VEGF injected for 120 s, 300 s dissociation
Method: (§1) Surface plasmon resonance (SPR) experiments were carried out on a Biacore 3000 (Cytiva). A CM5 chip for capture of the compounds was prepared according to the instructions of the mouse antibody capture kit (Cytiva, #BR100838). VGFR(½)-mFc-FSD1, TNFR2-mFc-FSD1, VGFR(½)/FST291-mFc, TNFR2/FST291-mFc, VGFR(½)-hFc (Aflibercept), TNFR2-hFc (Etanercept), and FST315dHBS-mFc (SEQ ID NO: 30, SEQ ID NO: 31) were captured to approximately 1,000 RU (Resonance Units). TNFα (R&D Systems, #210-TA-005,) or VEGF (R&D Systems, #293-VE-010) were then injected for 120 s followed by a 300 s dissociation phase. At the end of each binding cycle, non-covalently attached molecules were removed from both surfaces by a 180 s regeneration with 10 mM glycine, pH 1.7. All proteins were diluted in running buffer ([…], pH 7.5, […], 2 mM CaCl₂) and 0.05% Tween 20). A flow rate of 30 μl/min was used in all steps of the experiments. Binding analysis was performed at 25° C., and data were collected at a rate of 1 Hz. Using the BIAevaluation 4.1.1 software (Cytiva), recorded signals were referenced; the signal from the in-line reference flow cell was subtracted as was the signal from a blank run (0 nM analyte).

activin A [4] = target: T3, activin A (human, UniProt P08476 311-426); assay: cell-based or functional assay
T3 sequence: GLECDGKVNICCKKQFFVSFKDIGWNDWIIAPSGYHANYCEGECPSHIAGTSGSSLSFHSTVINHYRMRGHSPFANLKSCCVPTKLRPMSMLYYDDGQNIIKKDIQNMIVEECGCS

[5] = target: T1, GDF11 (Growth Differentiation Factor 11); assay: cell-based or functional assay; remark: listed apart in the source
myostatin [6] = target: T2, myostatin; assay: cell-based or functional assay; remark: listed apart in the source
[7] = target: TNFα (Tumor Necrosis Factor alpha) (UniProt P01375 77-233); assay: SPR (Biacore 3000, 25 °C): compound captured to about 1,000 RU on a CM5 chip with the mouse antibody capture kit, TNFα injected for 120 s, 300 s dissociation
Method: as §1

activin A [8] = target: T3, activin A; assay: cell-based or functional assay; remark: listed apart in the source
[9] = target: T1, GDF11 (Growth Differentiation Factor 11); assay: cell-based or functional assay; remark: listed apart in the source
activin A [10] = target: T3, activin A; assay: cell-based or functional assay; remark: listed apart in the source
myostatin [11] = target: T2, myostatin; assay: cell-based or functional assay; remark: listed apart in the source
myostatin [12] = target: T2, myostatin; assay: cell-based or functional assay; remark: listed apart in the source
activin A [13] = target: T3, activin A; assay: cell-based or functional assay; remark: listed apart in the source
[14] = target: T1, GDF11 (Growth Differentiation Factor 11); assay: cell-based or functional assay; remark: listed apart in the source

Sequence of TNFα (Tumor Necrosis Factor alpha) (P01375 77-233 limits assumed): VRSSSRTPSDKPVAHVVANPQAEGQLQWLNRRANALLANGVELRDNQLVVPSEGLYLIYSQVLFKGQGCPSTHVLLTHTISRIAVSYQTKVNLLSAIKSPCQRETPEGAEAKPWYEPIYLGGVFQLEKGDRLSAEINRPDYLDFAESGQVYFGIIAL
Sequence of VEGF (Vascular Endothelial Growth Factor) (P15692 other isoform, or with tags, fused parts or gaps limits assumed): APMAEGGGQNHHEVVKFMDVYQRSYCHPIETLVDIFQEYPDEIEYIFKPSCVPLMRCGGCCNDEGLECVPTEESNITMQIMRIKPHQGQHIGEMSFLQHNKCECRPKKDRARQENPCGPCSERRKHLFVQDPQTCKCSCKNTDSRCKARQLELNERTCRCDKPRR

- IC50, neutralisation of 1 ng/mL GDF11 (pSmad2/3 luciferase reporter, HEK293 cells) [cont. B] [1]: 3450 pM
- IC50, neutralisation of 1 ng/mL myostatin (pSmad2/3 luciferase reporter, HEK293 cells) [cont. B] (myostatin [2]): 1640 pM
- binding result [3]: binds
- IC50, neutralisation of 1 ng/mL activin A (pSmad2/3 luciferase reporter, HEK293 cells) [cont. B] (activin A [4]): 584 pM
B1: VGFR(½)/FST291-mFc (Fc fusion)
chain 1: GNCWLRQAKNGRCQVLYKTELSKEECCSTGRLSTSWTEEDVNDNTLFKWMIFNGGAPNCIPCKETCENVDCGPGKKCRMNKKNKPRCVCAPDCSNITWKGPVCGLDGKTYRNECALLKARCKEQPELEVQYQGRCKKTCRDVFCPGSSTCVVDQTNNAYCVTCNRICPEPASSEQYLCGNDGVTYSSACHLRKATCLLGRSIGLAYEGKCIKAKSCEDIQCTGGKKCLWDFKVGRGRCSLCDELCPDSKSDEPVCASDNATYASECAMKEAACSSGVLLEVKHSGSCNSISPRGPTIKPCPPCKCPAPNLLGGPSVFIFPPKIKDVLMISLSPIVTCVVVDVSEDDPDVQISWFVNNVEVHTAQTQTHREDYNSTLRVVSALPIQHQDWMSGKEFKCKVNNKDLPAPIERTISKPKGSVRAPQVYVLPPPEEEMTEKQVTLTCMVTDFMPEDIYVEWTNNGKTELNYKNTEPVLDSDGSYFMYSWLRVEKKNWVERNSYSCSVVHEGLHNHHTTKSFSRTPGK
chain 2: SDTGRPFVEMYSEIPEIIHMTEGRELVIPCRVTSPNITVTLKKFPLDTLIPDGKRIIWDSRKGFIISNATYKEIGLLTCEATVNGHLYKTNYLTHRQTNTIIDVVLSPSHGIELSVGEKLVLNCTARTELNVGIDFNWEYPSSKHQHKKLVNRDLKTQSGSEMKKFLSTLTIDGVTRSDQGLYTCAASSGLMTKKNSTFVRVHEKPRGPTIKPCPPCKCPAPNLLGGPSVFIFPPKIKDVLMISLSPIVTCVVVDVSEDDPDVQISWFVNNVEVHTAQTQTHREDYNSTLRVVSALPIQHQDWMSGKEFKCKVNNKDLPAPIERTISKPKGSVRAPRVYVLPPPEEEMTKKQVTLTCMVTDFMPEDIYVEWTNNGKTELNYKNTEPVLVSDGSYTMYSKLRVEKKNWVERNSYSCSVVHEGLHNHHTTKSFSRTPGKLVPRGSHHHHHH
notes: Fc heterodimer (knobs-in-holes, murine IgG2A); also called VGFR(1/2)/FST291-mFc; type 4 design compound

- IC50, neutralisation of 1 ng/mL GDF11 (pSmad2/3 luciferase reporter, HEK293 cells) [cont. C] [5]: 4490 pM
- IC50, neutralisation of 1 ng/mL myostatin (pSmad2/3 luciferase reporter, HEK293 cells) [cont. C] (myostatin [6]): 1610 pM
- IC50, neutralisation of 1 ng/mL activin A (pSmad2/3 luciferase reporter, HEK293 cells) [cont. C] (activin A [8]): 525 pM
B2: TNFR2/FST291-mFc (Fc fusion)
chain 1: GNCWLRQAKNGRCQVLYKTELSKEECCSTGRLSTSWTEEDVNDNTLFKWMIFNGGAPNCIPCKETCENVDCGPGKKCRMNKKNKPRCVCAPDCSNITWKGPVCGLDGKTYRNECALLKARCKEQPELEVQYQGRCKKTCRDVFCPGSSTCVVDQTNNAYCVTCNRICPEPASSEQYLCGNDGVTYSSACHLRKATCLLGRSIGLAYEGKCIKAKSCEDIQCTGGKKCLWDFKVGRGRCSLCDELCPDSKSDEPVCASDNATYASECAMKEAACSSGVLLEVKHSGSCNSISPRGPTIKPCPPCKCPAPNLLGGPSVFIFPPKIKDVLMISLSPIVTCVVVDVSEDDPDVQISWFVNNVEVHTAQTQTHREDYNSTLRVVSALPIQHQDWMSGKEFKCKVNNKDLPAPIERTISKPKGSVRAPQVYVLPPPEEEMTEKQVTLTCMVTDFMPEDIYVEWTNNGKTELNYKNTEPVLDSDGSYFMYSWLRVEKKNWVERNSYSCSVVHEGLHNHHTTKSFSRTPGK
chain 2: LPAQVAFTPYAPEPGSTCRLREYYDQTAQMCCSKCSPGQHAKVFCTKTSDTVCDSCEDSTYTQLWNWVPECLSCGSRCSSDQVETQACTREQNRICTCRPGWYCALSKQEGCRLCAPLRKCRPGFGVARPGTETSDVVCKPCAPGTFSNTTSSTDICRPHQICNVVAIPGNASMDAVCTSTSPTRSMAPGAVHLPQPVSTRSQHTQPTPEPSTAPSTSFLLPMGPSPPAEGSTGDPRGPTIKPCPPCKCPAPNLLGGPSVFIFPPKIKDVLMISLSPIVTCVVVDVSEDDPDVQISWFVNNVEVHTAQTQTHREDYNSTLRVVSALPIQHQDWMSGKEFKCKVNNKDLPAPIERTISKPKGSVRAPRVYVLPPPEEEMTKKQVTLTCMVTDFMPEDIYVEWTNNGKTELNYKNTEPVLVSDGSYTMYSKLRVEKKNWVERNSYSCSVVHEGLHNHHTTKSFSRTPGKLVPRGSHHHHHH
notes: Fc heterodimer (knobs-in-holes, murine IgG2A); also called type 4 design compound
- binding result [7]: binds

B3: TNFR2-mFc-FSD1 (Fc fusion)
chain: LPAQVAFTPYAPEPGSTCRLREYYDQTAQMCCSKCSPGQHAKVFCTKTSDTVCDSCEDSTYTQLWNWVPECLSCGSRCSSDQVETQACTREQNRICTCRPGWYCALSKQEGCRLCAPLRKCRPGFGVARPGTETSDVVCKPCAPGTFSNTTSSTDICRPHQICNVVAIPGNASMDAVCTSTSPTRSMAPGAVHLPQPVSTRSQHTQPTPEPSTAPSTSFLLPMGPSPPAEGSTGDPRGPTIKPCPPCKCPAPNLLGGPSVFIFPPKIKDVLMISLSPIVTCVVVDVSEDDPDVQISWFVNNVEVHTAQTQTHREDYNSTLRVVSALPIQHQDWMSGKEFKCKVNNKDLPAPIERTISKPKGSVRAPQVYVLPPPEEEMTKKQVTLTCMVTDFMPEDIYVEWTNNGKTELNYKNTEPVLDSDGSYFMYSKLRVEKKNWVERNSYSCSVVHEGLHNHHTTKSFSRTPGKETCENVDCGPGKKCRMNKKNKPRCVCAPDCSNITWKGPVCGLDGKTYRNECALLKARCKEQPELEVQYQGRCK
notes: expressed in CHO cells; also called type 2 design compound
- binding result [7]: binds

- IC50, neutralisation of 1 ng/mL GDF11 (pSmad2/3 luciferase reporter, HEK293 cells) [cont. C] [9]: 21 nM
- IC50, neutralisation of 1 ng/mL activin A (pSmad2/3 luciferase reporter, HEK293 cells) (activin A [10]): 18 nM
- binding result [3]: binds
- IC50, neutralisation of 1 ng/mL myostatin (pSmad2/3 luciferase reporter, HEK293 cells) [cont. B] (myostatin [11]): 37 nM
B4: VGFR(½)-mFc-FSD1 (Fc fusion)
chain: SDTGRPFVEMYSEIPEIIHMTEGRELVIPCRVTSPNITVTLKKFPLDTLIPDGKRIIWDSRKGFIISNATYKEIGLLTCEATVNGHLYKTNYLTHRQTNTIIDVVLSPSHGIELSVGEKLVLNCTARTELNVGIDFNWEYPSSKHQHKKLVNRDLKTQSGSEMKKFLSTLTIDGVTRSDQGLYTCAASSGLMTKKNSTFVRVHEKPRGPTIKPCPPCKCPAPNLLGGPSVFIFPPKIKDVLMISLSPIVTCVVVDVSEDDPDVQISWFVNNVEVHTAQTQTHREDYNSTLRVVSALPIQHQDWMSGKEFKCKVNNKDLPAPIERTISKPKGSVRAPQVYVLPPPEEEMTKKQVTLTCMVTDFMPEDIYVEWTNNGKTELNYKNTEPVLDSDGSYFMYSKLRVEKKNWVERNSYSCSVVHEGLHNHHTTKSFSRTPGKETCENVDCGPGKKCRMNKKNKPRCVCAPDCSNITWKGPVCGLDGKTYRNECALLKARCKEQPELEVQYQGRCK
notes: expressed in CHO cells; also called VGFR(1/2)-mFc-FSD1; type 2 design compound

- IC50, neutralisation of 1 ng/mL myostatin (pSmad2/3 luciferase reporter, HEK293 cells) (myostatin [12]): 210 pM
- IC50, neutralisation of 1 ng/mL activin A (pSmad2/3 luciferase reporter, HEK293 cells) (activin A [13]): 53 pM
- IC50, neutralisation of 1 ng/mL GDF11 (pSmad2/3 luciferase reporter, HEK293 cells) [14]: 119 pM
B5: native full-length follistatin315 (FST315) (other)
chain: GNCWLRQAKNGRCQVLYKTELSKEECCSTGRLSTSWTEEDVNDNTLFKWMIFNGGAPNCIPCKETCENVDCGPGKKCRMNKKNKPRCVCAPDCSNITWKGPVCGLDGKTYRNECALLKARCKEQPELEVQYQGRCKKTCRDVFCPGSSTCVVDQTNNAYCVTCNRICPEPASSEQYLCGNDGVTYSSACHLRKATCLLGRSIGLAYEGKCIKAKSCEDIQCTGGKKCLWDFKVGRGRCSLCDELCPDSKSDEPVCASDNATYASECAMKEAACSSGVLLEVKHSGSCNSISEDTEEEEEDEDQDYSFPISSILEW
